In patent US20100285583A1, “COMPOUNDS AND METHODS FOR INHIBITING PLATELET AGGREGATION” (priority 2009, published 2010):

How the values were obtained:
[1] = Liposome-binding assay, sulfatide liposomes; conditions: liposomes with sulfatides
Procedure: (§1) Lipid stocks including sulfatides, PE, PS, and PtdIns(4,5)P2 were dissolved in chloroform:methanol:water (1:2;0.8, 65:35:8, 65:35:4 and 65:35:8, respectively), whereas cholesterol and PC were dissolved in chloroform:methanol (1:1). Sulfatides liposomes were prepared in a weight ratio of 1:1:1:4 of PC:PE:cholesterol:sulfatides. PtdIns(4,5)P2 liposomes were prepared in a percent ratio of 50:20:10:10:10 of PC:PE:PS:cholesterol:PtdIns(4,5)P2. Controls were prepared by adjusting the ratios with PC. Lipid films were generated by lyophilization overnight and hydrated in 20 mM Tris-HCl (pH 6.8), 100 mM NaCl, 2 mM dithiothreitol (DTT) at 1 mg/mL and freeze-thawed 3 times. Liposomes were sonicated and further pelleted and suspended in 4 mg/mL. Ten μg of protein were incubated with 125 μg of total lipids for 20 min at RT. Liposome-bound and free-protein samples were separated by centrifugation and analyzed by SDS-PAGE. Bands were quantified using AlphaImager, and the percentage of total protein each fraction contained was calculated from the total protein.

[2] = Liposome-binding assay, PtdIns(4,5)P2 liposomes; conditions: liposomes with PtdIns(4,5)P2
Procedure: as §1

[3] = tested on: platelet surface P-selectin; assay: Flow cytometry, platelet surface P-selectin; assay type: cell-based, human; conditions: for inhibition of sulfatide induced activation (surface P-selectin): ADP 30 μM, sulfatide liposomes 50 μg/mL
Procedure: (§2) Washed platelets (2.5×10^5 platelets/μL) were kept unactivated or either activated with ADP (30 μM) or TRAP (10 μM). Both unactivated and activated platelets were incubated for 10 min at 23° C. with liposomes (50 μg/mL) either without (liposomes control) or with sulfatides, and N-PTB constructs (1 μM). Reactions were fixed with 1% formalin and incubated with PE- labeled CD62p anti-P-selectin (BioLegend) or FITC-labeled PAC-1 anti-integrin receptor (BD Transduction) antibodies. Bound antibodies were quantified using a FacsAria flow cytometer.
Once present, P-selectin is able to interact with sulfatides which triggers an internal phosphorylation pathway thought to be mediated by p38 (FIG. 12A) (Merten 2005). This cascade results in further de-granulation and an increase in surface P-selectin (Merten 2005). To monitor the de-granulation of platelets, two activation markers were evaluated using fluorescent antibodies specific for P-selectin and the αIIbβ3 integrin. Marker surface expression was quantified using fluorescence-activated cell sorting (FACS) analysis, and measuring the median fluorescent signal of 10,000 platelets. The median signal was used as our reference to quantify the data set as median values are less affected by the wide range of platelet signals and is therefore more representative of the population. When platelets were stimulated with ADP (30 μM) they show increases in both surface P-selecting and αIIbβ3 integrin expression. In the presence of sulfatides (50 μg/mL), in the form of enriched liposomes, the levels of P-selectin and αIIbβ3 integrin were further increased to about 20-25 fold their un-stimulated levels (FIG. 12B). […] The levels of P-selectin and αIIbβ3 integrin were measured among several different individuals and the levels varied greatly between them; however; consistently, sulfatides induced a ˜20 fold increase over un-stimulated platelets and a ˜10 fold increase over ADP stimulated platelets.

[4] = tested on: platelet surface αIIbβ3 integrin; assay: Flow cytometry, platelet surface αIIbβ3 integrin; assay type: cell-based, human; conditions: ADP 30 μM, sulfatide liposomes 50 μg/mL
Procedure: as §2
Once present, P-selectin is able to interact with sulfatides which triggers an internal phosphorylation pathway thought to be mediated by p38 (FIG. 12A) (Merten 2005). This cascade results in further de-granulation and an increase in surface P-selectin (Merten 2005). To monitor the de-granulation of platelets, two activation markers were evaluated using fluorescent antibodies specific for P-selectin and the αIIbβ3 integrin. Marker surface expression was quantified using fluorescence-activated cell sorting (FACS) analysis, and measuring the median fluorescent signal of 10,000 platelets. The median signal was used as our reference to quantify the data set as median values are less affected by the wide range of platelet signals and is therefore more representative of the population. […]

[5] = tested on: platelet and leukocyte mixtures; assay: Platelet-leukocyte aggregation assay (flow cytometry, CD42b on leukocytes); assay type: cell-based, human; conditions: ADP 30 μM, sulfatide liposomes
Procedure: Whole blood was collected as indicated above and centrifuged at 200 g to separate the blood from plasma and red blood cell fractions. Plasma and buffy coat layer were carefully removed and diluted 1:1 with PBS. The dilution was then layered onto a Ficoll Plus gradient and spun at 200 g for 20 min. The enriched platelet and leukocyte layer was removed, diluted with PBS, centrifuged and the pellet resuspended in Tyrode's Albumin buffer to a concentration of ˜3×10^5 platelets/μL and 3×10^3 leukocytes/μL. Isolated platelet-leukocyte mixtures were remained unactivated or activated with ADP (30 μM). Both unactivated and activated platelets were incubated for 10 min at 23° C. with liposomes (50 μg/mL) either without (liposomes control) or with sulfatides, and N-PTB constructs (1 μM). Reactions were fixed with 1% formalin and incubated with APC-labeled CD42b (Biolegend) and FITC-labeled CD45 (Biolegend) antibodies. Bound antibodies were quantified using a FacsAria flow cytometer.
Platelet P-selectin mediates platelet-leukocyte interactions through binding of leukocyte PSGL-1 (Merten 2005). […] Platelet binding of leukocytes was quantified through the fluorescence of allophycocyanin (APC) labeled anti-human CD42b (platelet marker) detected on leukocytes. The fluorescence was detected using flow cytometry analysis of platelet-leukocyte mixtures.

[6] = tested on: platelet and leukocyte mixtures; assay: Platelet-leukocyte aggregation under flow; assay type: cell-based, human; conditions: 10 μM, with sulfatide liposomes
Procedure: The microfluidic device consisted in a simple straight channel 500 μm wide, 50 μm deep and 3.62 cm long. A silicon master stamp was fabricated on a <100> silicon substrate following a previously described process (Ross et al. Ann. Rev. Med. 1987, 38:71-79). Flow was driven using a micro-syringe pump (Cole-Parmer) with a 1 mL syringe connected to the channel inlet by 30 cm of Cole-Parmer gauge 20 Teflon tubing. After priming the system with the sample, the pump was set to 0.05 mL/h (equivalent to an average velocity of 0.55 mm/sec in the channel), which is in the range of in vivo blood velocity (0.1-1.5 mm/sec (9)) and causes a shear rate of 70 sec−1. This flow rate was maintained for 1 min prior to the experiments. Platelets flowing through the channel were monitored using an inverted light microscope (DMI 6000B, Leica Microsystems) equipped with a digital camera (DFC420, Leica Microsystems).
To quantify the ability of N-PTB to block platelet-leukocyte binding under physiological flow conditions, platelet and leukocyte mixtures were flown through a microfluidics device, as described above, and aggregation was measured using light microscopy. Untreated cell suspensions ([…]) were flown for 10 minutes and the channel was scanned for leukocyte adhesion and inclusion into platelet aggregates and representative pictures were taken (FIG. 18A-B).

B1: N-PTB: N-terminal phosphotyrosine binding domain (residues 1-241) of human Disabled-2 (Dab2), expressed as GST-fusion in E. coli (protein)
chain: MSNEVETSATNGQPDQQAAPKAPSKKEKKKGPEKTDEYLLARFKGDGVKYKAKLIGIDDVPDARGDKMSQDSMMKLKGMAARGRSQGQHKQRIWVNISLSGIKIIDEKTGVIEHEHPVNKISFIARDVTDNRAFGYVCGGEGQHQFFAIKTGQQAEPLVVDLKDLFQVIYNVKKKEEEKKKIEEASKAVENGSEALMILDDQTNKLKSGVDQMDLFGDMSTPPDLNSPTESKDILLVDLNS
sulfatide binding [1]: bound to sulfatide-enriched liposomes | PtdIns(4,5)P2 binding [2]: bound to PtdIns(4,5)P2-containing liposomes | inhibition of sulfatide induced activation (surface P-selectin) [3]: remained at ADP stimulated levels | inhibition of sulfatide induced activation (surface P-selectin) ([3]; listed as N-PTB^4M): no inhibition of sulfatide induced activation | IC50 ([3]; titration 1 nM-1 μM, ADP stimulated platelets, logarithmic curve fit, read-out: IC50, inhibition of sulfatide induced P-selectin marker expression): 121 nM | inhibition of sulfatide induced expression of αIIbβ3 integrin [4]: inhibition of sulfatide induced expression | inhibition of sulfatide induced expression of αIIbβ3 integrin ([4]; listed as N-PTB^4M): no inhibition | inhibition of platelet-leukocyte binding [5]: decreased platelet binding to leukocytes | inhibition of platelet-leukocyte binding ([5]; listed as N-PTB^4M): no inhibition of platelet-leukocyte binding | effect on leukocyte adhesion and platelet-leukocyte aggregates under flow [6]: great reduction in observed leukocyte adhesion as well as platelet-leukocyte aggregates | effect on leukocyte adhesion and platelet-leukocyte aggregates under flow ([6]; listed as N-PTB^4M): unable to affect the adhesion and aggregation of leukocytes
